Source: PMC12578939

Target: microtubules polymerised from bovine brain tubulin (bovine) (UniProt Q6B856)
Assay: TIRF microscopy of binding to immobilised microtubules

reduction in MT binding against wildtype augmin: 50%
Substance: augmin octamer lacking the N-terminal CH domain of Haus6 (residues 1-160) (from UniProt Q6DCY9;Q0IHJ3) (complex)
